Patent publication US7897371B2, “Activation of mutated RAC-PK” (Novartis AG, priority 1995, dated 2011)
Values joined by “and” are separate entries in the source; they are usually repeats but may differ in a detail not shown here. Identical values can stand only once. Like-named read-outs stand apart in the source and are kept apart here. No end group written: not given here.

Legend:
RAC-PK = RAC-PK activity immunoprecipitated from Swiss 3T3 cells (MBP substrate); assay type: cell-based; details: for Increase in RAC-PK activity: Swiss 3T3 cells, 1 μM okadaic acid, 0.1 mM vanadate, insulin or 10% FCS
RAC-PKα [1] = target: RAC-PKα (Homo sapiens, UniProt P31749)
RAC-PKα (Homo sapiens, UniProt P31749), sequence (P31749 whole entry): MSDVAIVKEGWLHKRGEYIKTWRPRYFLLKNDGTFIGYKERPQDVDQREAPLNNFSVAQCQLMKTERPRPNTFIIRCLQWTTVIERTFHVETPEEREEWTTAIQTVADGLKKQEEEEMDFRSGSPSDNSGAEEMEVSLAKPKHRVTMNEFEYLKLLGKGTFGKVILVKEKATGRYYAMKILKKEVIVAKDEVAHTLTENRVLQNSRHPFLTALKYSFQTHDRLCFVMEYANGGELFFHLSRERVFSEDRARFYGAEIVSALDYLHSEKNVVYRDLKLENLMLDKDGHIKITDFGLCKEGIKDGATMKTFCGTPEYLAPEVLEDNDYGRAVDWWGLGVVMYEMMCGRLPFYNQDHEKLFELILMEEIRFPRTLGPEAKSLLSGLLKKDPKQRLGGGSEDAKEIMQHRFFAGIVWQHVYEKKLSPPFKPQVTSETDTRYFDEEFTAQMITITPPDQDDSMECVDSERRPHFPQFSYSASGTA

GSK3β = assay type: cell-based, human
GSK3β, sequence (P49841 whole entry): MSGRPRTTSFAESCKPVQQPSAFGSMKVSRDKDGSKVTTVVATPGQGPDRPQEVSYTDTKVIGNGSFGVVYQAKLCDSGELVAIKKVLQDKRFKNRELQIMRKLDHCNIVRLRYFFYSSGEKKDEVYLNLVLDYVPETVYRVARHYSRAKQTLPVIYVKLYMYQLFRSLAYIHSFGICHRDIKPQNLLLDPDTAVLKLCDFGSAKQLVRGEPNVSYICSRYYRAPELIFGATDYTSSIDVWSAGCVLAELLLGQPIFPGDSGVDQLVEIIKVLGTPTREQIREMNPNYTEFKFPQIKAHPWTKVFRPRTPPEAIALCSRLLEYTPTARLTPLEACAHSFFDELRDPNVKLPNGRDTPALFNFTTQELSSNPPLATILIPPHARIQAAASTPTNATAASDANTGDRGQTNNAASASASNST

RAC-PKα [2] = assay type: cell-based, human
MAPKAP kinase-1 = details: cited from earlier work
p70 S6 kinase = target: T1, p70 S6 kinase (Rattus norvegicus, UniProt P67999); details: cited from earlier work; for Km: read-out: Km for phosphorylation by p70 S6 kinase
T1 construct: from tissue; host or cells: rat liver
T1 sequence (P67999 24-525): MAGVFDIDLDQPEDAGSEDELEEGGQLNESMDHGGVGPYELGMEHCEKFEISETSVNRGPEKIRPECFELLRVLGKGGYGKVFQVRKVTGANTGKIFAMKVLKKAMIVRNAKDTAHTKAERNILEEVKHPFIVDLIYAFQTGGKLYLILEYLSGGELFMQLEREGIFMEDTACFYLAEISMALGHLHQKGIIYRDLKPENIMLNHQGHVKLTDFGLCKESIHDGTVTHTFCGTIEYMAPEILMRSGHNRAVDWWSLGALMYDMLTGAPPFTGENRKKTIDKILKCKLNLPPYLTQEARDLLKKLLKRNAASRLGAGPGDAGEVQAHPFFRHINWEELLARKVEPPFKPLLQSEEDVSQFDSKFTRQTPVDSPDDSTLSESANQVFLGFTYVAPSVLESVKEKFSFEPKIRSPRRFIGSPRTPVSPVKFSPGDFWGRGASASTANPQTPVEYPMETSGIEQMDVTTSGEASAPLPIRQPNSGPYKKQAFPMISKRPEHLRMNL

[3] = system: CC(C)C[C@H](NC(=O)[C@H](CO)NC(=O)[C@H](CO)NC(=O)[C@@H](NC(=O)[C@H](CCCNC(=N)N)NC(=O)[C@@H]1CCCN1C(=O)[C@@H](N)CCCNC(=N)N)[C@@H](C)O)C(=O)O; assay: purified protein, by the assay type; details: other: phosphorylation by RAC-PKα; pH 7.5; 30.0 °C
[4] = system: CC(C)[C@H](NC(=O)[C@@H](NC(=O)[C@H](CCCNC(=N)N)NC(=O)[C@@H]1CCCN1C(=O)[C@@H](N)CCCNC(=N)N)[C@@H](C)O)C(=O)N[C@@H](CO)C(=O)N[C@@H](Cc1ccccc1)C(=O)O; assay: purified protein, by the assay type; details: other: phosphorylation by RAC-PKα; pH 7.5; 30.0 °C
[5] = system: CC(C)[C@H](NC(=O)[C@H](CCCNC(=N)N)NC(=O)[C@@H]1CCCN1C(=O)[C@@H](N)CCCNC(=N)N)C(=O)N[C@@H](CO)C(=O)N[C@@H](CO)C(=O)N[C@@H](Cc1ccccc1)C(=O)O; assay: purified protein, by the assay type; details: other: phosphorylation by RAC-PKα; pH 7.5; 30.0 °C
[6] = system: CC(C)[C@H](NC(=O)[C@H](CO)NC(=O)[C@H](CO)NC(=O)[C@@H](NC(=O)[C@H](CCCNC(=N)N)NC(=O)[C@@H]1CCCN1C(=O)[C@@H](N)CCCNC(=N)N)[C@@H](C)O)C(=O)O; assay: purified protein, by the assay type; details: other: phosphorylation by RAC-PKα; pH 7.5; 30.0 °C
[7] = system: C[C@@H](O)[C@H](NC(=O)[C@H](CCCNC(=N)N)NC(=O)[C@@H]1CCCN1C(=O)[C@@H](N)CCCNC(=N)N)C(=O)NCC(=O)N[C@@H](CO)C(=O)N[C@@H](Cc1ccccc1)C(=O)O; assay: purified protein, by the assay type; details: other: phosphorylation by RAC-PKα; pH 7.5; 30.0 °C
[8] = system: C[C@@H](O)[C@H](NC(=O)[C@H](CCCNC(=N)N)NC(=O)[C@@H]1CCCN1C(=O)[C@@H](N)CCCNC(=N)N)C(=O)N[C@@H](CC(N)=O)C(=O)N[C@@H](CO)C(=O)N[C@@H](Cc1ccccc1)C(=O)O; assay: purified protein, by the assay type; details: other: phosphorylation by RAC-PKα; pH 7.5; 30.0 °C
[9] = system: C[C@@H](O)[C@H](NC(=O)[C@H](CCCNC(=N)N)NC(=O)[C@@H]1CCCN1C(=O)[C@@H](N)CCCNC(=N)N)C(=O)N[C@@H](CO)C(=O)N[C@@H](CO)C(=O)N[C@@H](CCCCN)C(=O)O; assay: purified protein, by the assay type; details: other: phosphorylation by RAC-PKα; pH 7.5; 30.0 °C
[10] = system: C[C@@H](O)[C@H](NC(=O)[C@H](CCCNC(=N)N)NC(=O)[C@@H]1CCCN1C(=O)[C@H](CCCNC(=N)N)NC(=O)CN)C(=O)N[C@@H](CO)C(=O)N[C@@H](CO)C(=O)N[C@@H](Cc1ccccc1)C(=O)O; assay: purified protein, by the assay type; details: other: phosphorylation by RAC-PKα; pH 7.5; 30.0 °C
[11] = system: C[C@H](NC(=O)CNC(=O)[C@H](CCCNC(=N)N)NC(=O)[C@@H]1CCCN1C(=O)[C@@H](N)CCCNC(=N)N)C(=O)N[C@@H](CO)C(=O)N[C@@H](Cc1ccccc1)C(=O)O; assay: purified protein, by the assay type; details: other: phosphorylation by RAC-PKα; pH 7.5; 30.0 °C
[12] = system: C[C@H](NC(=O)[C@H](C)NC(=O)[C@H](CCCNC(=N)N)NC(=O)[C@@H]1CCCN1C(=O)[C@@H](N)CCCNC(=N)N)C(=O)N[C@@H](CO)C(=O)N[C@@H](Cc1ccccc1)C(=O)O; assay: purified protein, by the assay type; details: other: phosphorylation by RAC-PKα; pH 7.5; 30.0 °C
[13] = system: C[C@H](NC(=O)[C@H](C)NC(=O)[C@H](CCCNC(=N)N)NC(=O)[C@@H]1CCCN1C(=O)[C@@H](N)CCCNC(=N)N)C(=O)N[C@H](C(=O)N[C@@H](Cc1ccccc1)C(=O)O)[C@@H](C)O; assay: purified protein, by the assay type; details: pH 7.5; 30.0 °C
[14] = system: C[C@H](NC(=O)[C@H](CCCNC(=N)N)NC(=O)[C@@H]1CCCN1C(=O)[C@@H](N)CCCNC(=N)N)C(=O)NCC(=O)N[C@@H](CO)C(=O)N[C@@H](Cc1ccccc1)C(=O)O; assay: purified protein, by the assay type; details: other: phosphorylation by RAC-PKα; pH 7.5; 30.0 °C
[15] = system: C[C@H](NC(=O)[C@H](CO)NC(=O)[C@H](CO)NC(=O)[C@@H](NC(=O)[C@H](CCCNC(=N)N)NC(=O)[C@@H]1CCCN1C(=O)[C@@H](N)CCCNC(=N)N)[C@@H](C)O)C(=O)O; assay: purified protein, by the assay type; details: other: phosphorylation by RAC-PKα; pH 7.5; 30.0 °C
[16] = system: C[C@H](NC(=O)[C@H](Cc1ccccc1)NC(=O)[C@H](CO)NC(=O)[C@H](CO)NC(=O)[C@@H](NC(=O)[C@H](CCCNC(=N)N)NC(=O)[C@@H]1CCCN1C(=O)[C@@H](N)CCCNC(=N)N)[C@@H](C)O)C(=O)O; assay: purified protein, by the assay type; details: other: phosphorylation by RAC-PKα; pH 7.5; 30.0 °C
[17] = system: C[C@H](NC(=O)[C@H](Cc1ccccc1)NC(=O)[C@H](CO)NC(=O)[C@H](CO)NC(=O)[C@@H](NC(=O)[C@H](CCCNC(=N)N)NC(=O)[C@H](C)NC(=O)[C@H](CCCNC(=N)N)NC(=O)CN)[C@@H](C)O)C(=O)O; assay: purified protein, by the assay type; details: other: phosphorylation by RAC-PKα; pH 7.5; 30.0 °C
[18] = system: N=C(N)NCCC[C@H](NC(=O)[C@@H]1CCCN1C(=O)[C@@H](N)CCCNC(=N)N)C(=O)NCC(=O)N[C@@H](CO)C(=O)N[C@@H](CO)C(=O)N[C@@H](Cc1ccccc1)C(=O)O; assay: purified protein, by the assay type; details: other: phosphorylation by RAC-PKα; pH 7.5; 30.0 °C
GSK3 = assay type: cell-based
RAC-PKα [19] = system: RAC-PKα
[20] = values marked *: data reported previously

C=C1[C@@H](O)[C@@H]2O[C@]3(CC[C@H](/C=C/[C@@H](C)[C@@H]4CC(C)=C[C@@]5(O[C@H](C[C@@](C)(O)C(=O)O)CC[C@H]5O)O4)O3)CC[C@H]2O[C@@H]1[C@@H](O)C[C@H](C)[C@H]1O[C@@]2(CCCCO2)CC[C@H]1C [okadaic acid]
Activation of RAC-PK (RAC-PK; Swiss 3T3, simultaneous 1 μM okadaic acid and 10% serum): 5 fold | Increase in RAC-PK activity (RAC-PK): 3 fold

[O]=[V]([O-])([O-])[O-] [vanadate]
Increase in RAC-PK activity (RAC-PK): 11 fold

GRPRTSSFAEG
Km (RAC-PKα [1]; phosphorylation by RAC-PKα): 4 µM

HA-KD-RAC-PKα: kinase dead mutant, Lys179 changed to Ala
Increase in GSK3 activity on PP2A treatment (GSK3β): ~12%

IGF-1
Activation of transfected RAC-PKα (RAC-PKα [2]): 46 fold and 38 fold | Half time for activation of transfected RAC-PKα (RAC-PKα [2]): 1 min

KKRNKTLSVA [peptide substrate with Lys at position n-3]
Phosphorylation by RAC-PKα (RAC-PKα [1]): does not phosphorylate | Km (MAPKAP kinase-1; read-out: Km for phosphorylation by MAPKAP-K1): 17 µM | MAPKAP kinase-1 Vmax (U/mg) (MAPKAP kinase-1; [20]): 840* U/mg | Km (p70 S6 kinase): 34 µM | p70 S6 kinase Vmax (U/mg) (p70 S6 kinase; [20]): 760* U/mg

KKRNRTLSVA
Km (p70 S6 kinase): 1.5 µM

KPRTSSF [KPRTSSF]
Km (RAC-PKα [1]; phosphorylation by RAC-PKα): > 500 µM

RAC-PKα (Homo sapiens)
Km [3]: 8 µM | Vmax [3]: 278 U/mg | Km [4]: 30 µM | Vmax [4]: 365 U/mg | Km [5]: 25 µM | Vmax [5]: 273 U/mg | Km [6]: 21 µM | Vmax [6]: 300 U/mg | Km [7]: 25 µM | Vmax [7]: 233 U/mg | Km [8]: 30 µM | Vmax [8]: 300 U/mg | Km [9]: 80 µM | Vmax [9]: 308 U/mg | Km [10]: 8 µM | Vmax [10]: 385 U/mg | Km [11]: 105 µM | Vmax [11]: 160 U/mg | Km [12]: 25 µM | Vmax [12]: 215 U/mg | Km [13]: 25 µM | Vmax [13]: 230 U/mg | Km [14]: 49 µM | Vmax [14]: 114 U/mg | Km [15]: 250 µM | Vmax [15]: 265 U/mg | Km [16]: 8 µM | Vmax [16]: 305 U/mg | Km [17]: 10 µM | Vmax [17]: 230 U/mg | Km [18]: 60 µM | Vmax [18]: 163 U/mg

RFRGGSF
Km (RAC-PKα [1]): 105 µM | V (0.1 mM) (RAC-PKα [1]): 55 | Vmax (U/mg) (RAC-PKα [1]): 345 U/mg

RPKTSSF [RPKTSSF]
Km (RAC-PKα [1]; phosphorylation by RAC-PKα): > 500 µM

RPRASSF
Km (RAC-PKα [1]): 12 µM | V (0.1 mM) (RAC-PKα [1]): 89 | Vmax (U/mg) (RAC-PKα [1]): 230 U/mg

RPRNSSF [RPRNSSF]
Km (RAC-PKα [1]; phosphorylation by RAC-PKα): > 500 µM

RPRTASF
Km (RAC-PKα [1]): 20 µM | V (0.1 mM) (RAC-PKα [1]): 83 | Vmax (U/mg) (RAC-PKα [1]): 213 U/mg

RPRTSS [RPRTSS]
Km (RAC-PKα [1]; phosphorylation by RAC-PKα): > 500 µM

RPRTSSE [RPRTSSE]
Km (RAC-PKα [1]; phosphorylation by RAC-PKα): > 500 µM

RPRTSSF [RPRTSSF]
Km (RAC-PKα [1]; phosphorylation by RAC-PKα): 5 µM

RPRTSTF [RPRTSTF]
Km (RAC-PKα [1]; phosphorylation by RAC-PKα): 30 µM

insulin: insulin from Novo-Nordisk
Activation of transfected RAC-PKα (RAC-PKα [2]): 20 fold | Half time for activation of transfected RAC-PKα (RAC-PKα [2]): 1 min | Increase in RAC-PK activity (RAC-PK): 4.5 fold | Increase in 32P-labelling of GSK3-α and GSK3-β (GSK3): 60-100% | Inhibition of GSK3 (GSK3): 40-50% | Half-time (t0.5) of activation of RAC-PK (RAC-PKα [19]): 1 min

B1: MBP: myelin basic protein, kinase assay substrate (protein, UniProt P02687 1-169, looked up)
Myelin basic protein: AAQKRPSQRSKYLASASTMDHARHGFLPRHRDTGILDSLGRFFGSDRGAPKRGSGKDGHHAARTTHYGSLPQKAQGHRPQDENPVVHFFKNIVTPRTPPPSQGKGRGLSLSRFSWGAEGQKPGFGYGGRASDYKSAHKGLKGHDAQGTLSKIFKLGGRDSRSGSPMARR
Km (RAC-PKα [1]): 5 µM | Vmax (U/mg) (RAC-PKα [1]): 25 U/mg
